Source: publication PMC1540706 (2006)

B3: human β2-appendage (700–937) used for ITC (domain or fragment)
chain: IGMAPGGYVAPKAVWLPAVKAKGLEISGTFTHRQGHIYMEMNFTNKALQHMTDFAIQFNKNSFGVIPSTPLAIHTPLMPNQSIDVSLPLNTLGPVMKMEPLNNLQVAVKNNIDVFYFSCLIPLNVLFVEDGKMERQVFLATWKDIPNENELQFQIKECHLNADTVSSKLQNNNVYTIAKRNVEGQDMLYQSLKLTNGIWILAELRIQPGNPNYTLSLKCRAPEVSQYIYQVYDSILKN
B4: human β2-appendage (700–937), top site mutant used for ITC (domain or fragment)
chain: IGMAPGGYVAPKAVWLPAVKAKGLEISGTFTHRQGHIYMEMNFTNKALQHMTDFAIQFNKNSFGVIPSTPLAIHTPLMPNQSIDVSLPLNTLGPVMKMEPLNNLQVAVKNNIDVFYFSCLIPLNVLFVEDGKMERQVFLATWKDIPNENELQFQIKECHLNADTVSSKLQNNNVYTIAKRNVEGQDMLVQSLKLTNGIWILAELRIQPGNPNYTLSLKCRAPEVSQYIYQVYDSILKN
B5: human β2-appendage (700–937) R879A used for ITC (domain or fragment)
chain: IGMAPGGYVAPKAVWLPAVKAKGLEISGTFTHRQGHIYMEMNFTNKALQHMTDFAIQFNKNSFGVIPSTPLAIHTPLMPNQSIDVSLPLNTLGPVMKMEPLNNLQVAVKNNIDVFYFSCLIPLNVLFVEDGKMERQVFLATWKDIPNENELQFQIKECHLNADTVSSKLQNNNVYTIAKANVEGQDMLYQSLKLTNGIWILAELRIQPGNPNYTLSLKCRAPEVSQYIYQVYDSILKN

What was measured:
Experiment in all cases: ITC
[1] = target: AP2 α-appendage appendage (Mus musculus, UniProt P17427)
[2] = target: B4
[3] = target: B3
[4] = target: B5
[5] = target: T1, human β2-appendage (700–937), side site mutant used for ITC (human, UniProt P63010 700-937)
T1 chain: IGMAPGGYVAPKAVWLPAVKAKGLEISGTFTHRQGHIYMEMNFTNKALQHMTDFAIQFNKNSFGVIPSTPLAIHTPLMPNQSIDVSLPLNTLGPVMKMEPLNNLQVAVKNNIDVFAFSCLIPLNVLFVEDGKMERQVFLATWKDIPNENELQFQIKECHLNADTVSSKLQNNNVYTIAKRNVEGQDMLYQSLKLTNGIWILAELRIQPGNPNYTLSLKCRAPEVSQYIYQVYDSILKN

Epsin P4 = target: Epsin P4
Eps15 P-long peptide = Eps15 P-long peptide (UniProt P42566)
ARH peptide = ARH peptide (UniProt Q5SW96)
Epsin P1 = target: Epsin P1
epsinR peptide = epsinR peptide (UniProt Q14677)

Sequence of AP2 α-appendage appendage (P17427 701-938): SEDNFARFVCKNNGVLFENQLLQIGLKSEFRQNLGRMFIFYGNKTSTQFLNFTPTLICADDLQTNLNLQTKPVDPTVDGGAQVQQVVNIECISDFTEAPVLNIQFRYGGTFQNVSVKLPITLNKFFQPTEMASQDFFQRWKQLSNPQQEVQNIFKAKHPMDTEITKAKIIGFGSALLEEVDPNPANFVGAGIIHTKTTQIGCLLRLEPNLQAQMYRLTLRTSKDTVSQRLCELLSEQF

SFFEDNFVPEIS [amphiphysin DNF 12mer peptide] showed a Kd [1] of 2.5 µM.

Binder SFGDGFADFSTL [Eps15 P-short peptide] has a Kd [2] of 59 µM.

B1: 6× His human Eps15-MD (530–791) (domain or fragment)
chain: STSSSETANLNEHVEGQSNLESEPIHQESPARSSPELLPSGVTDENEVTTAVTEKVCSELDNNRHSKEEDPFNVDSSSLTGPVADTNLDFFQSDPFVGSDPFKDDPFGKIDPFGGDPFKGSDPFASDCFFRQSTDPFATSSTDPFSAANNSSITSVETLKHNDPFAPGGTVVAASDSATDPFASVFGNESFGGGFADFSTLSKVNNEDPFRSATSSSVSNVVITKNVFEETSVKSEDEPPALPPKIGTPTRPCPLPPGKRSI
B1 gave a Kd [3] of 18 µM and a Kd [2] of 11 µM.

In the case of DDDIVFEDFARQRLKGMKDD [β-arrestin P-long peptide], the Kd [4] is reported as 0.17 µM and the Kd [5] is reported as 1.7 µM.

B2: Epsin1-MD (protein)
chain: TGGKEESSLMDLADVFTTPAPPQASDPWGGPASVPTAVPVAAAASDPWGAPAVPPAADPWGGAAPTPASGDPWRPAAPTGPSVDPWGGTPAPAAGEGPTSDPWGSADGGAPVSGPPSSDPWAPAPAFSDPWGGSPAKPSSNGTAVGGFDTEPD
For B2, the Kd [3] was 35 µM.

B3 gave a Kd (Epsin P4) of 160 µM, a Kd (Eps15 P-long peptide) of 12 µM and a Kd (ARH peptide) of 4.7 µM. For the same binder, the Kd (Epsin P1) was 131 µM.

With B4 the Kd (epsinR peptide) was 77 µM.

Work on B5 yielded a Kd (ARH peptide) of 5.5 µM.
